Patent US10577406B2, “FKBP-L polypeptides and uses in angiogenesis-mediated disorders” (ALMAC DISCOVERY LIMITED, priority 2006, dated 2020)

B1: full length recombinant FKBP-L: recombinant full length his-tagged FKBP-L protein (SEQ ID NO: 1) expressed in BL21 (DE3) (protein, listed as Homo sapiens)
chain: MRGSHHHHHHGMASMTGGQQMGRDLYDDDDKDRWGSMETPPVNTIGEKDTSQPQQEWEKNLRENLDSVIQIRQQPRDPPTETLELEVSPDPASQILEHTQGAEKLVAELEGDSHKSHGSTSQMPEALQASDLWYCPDGSFVKKIVIRGHGLDKPKLGSCCRVLALGFPFGSGPPEGWTELTMGVGPWREETWGELIEKCLESMCQGEEAELQLPGHTGPPVGLTLASFTQGRDSWELETSEKEALAREERARGTELFRAGNPEGAARCYGRALRLLLTLPPPGPPERTVLHANLAACQLLLGQPQLAAQSCDRVLEREPGHLKALYRRGVAQAALGNLEKATADLKKVLAIDPKNRAAQEELGKVVIQGKNQDAGLAQGLRKMFG
modifications: His tag

How the values were obtained:
[1] = tested on: HMEC-1; format: cell-based, Human
Description: (§1) The in vitro tubule formation assay used in these studies is a modified version of the method described by Ashton et al (1999). In brief, assays were conducted using BD BioCoat™ Matrigel™ Matrix Thin Layer 24-well Multiwell Plates (BD Discovery Labware, Oxford, UK). The Matrigel™ was rehydrated with 500 μl MCDB-131 serum free medium and incubated at 37° C. for 30 minutes. Excess medium was removed and HMEC-1 were seeded at a density of 1×10^5 and the plates incubated at 37° C. under 5% CO2/95% air for 1 hour.
Increasing concentrations of the recombinant FKBP-L protein (SEQ ID NO: 1) were added to each individual well in triplicate (250-1000 ngml^−1) and the plate was incubated for a further 18 hours. The degree of tubule formation between adjacent HMEC-1 cells was assessed in each well in five fields of view, by counting the number of cell to cell contacts between different HMEC-1 cells in the designated area. An independent investigator assessed each well and the FKBP-L treated wells were compared to sham treated controls.
as §1, with “al.” for “al”, “min.” for “minutes.”, “h. Increasing concentrations of FKBP-L 24mer (SEQ ID NO: 10) and 1-57mer (SEQ ID NO: 6) from 10^−14-10^−6 M were used.” for “hour.”
The plate was incubated for a further 18 h. The degree of tubule formation between adjacent HMEC-1 cells was assessed in each well in five fields of view, by counting the number of cell to cell contacts between different HMEC-1 cells in the designated area. An independent investigator assessed each well and the FKBP-L treated wells were compared to sham treated controls.

[2] = tested on: bFGF-induced vessels in subcutaneously implanted polyether sponges; assay: mouse sponge assay of angiogenesis in vivo; design: species or system C57 black mice; details: for reduction in vessel number versus bFGF alone: day 21
Description: In these experiments, polyether sponges were subcutaneously implanted in C57 black mice and injected on alternate days with 10 ng bovine fibroblast growth factor (bFGF) or 10 ng bFGF+5 μg full length His-tagged recombinant FKBP-L polypeptide (SEQ ID NO: 1). After 14 days of treatment, sponges were harvested, sectioned and stained with heamatoxylin and eosin.
This experiment evalulated the ability of the FKBP-L 24mer to inhibit angiogenesis using the mouse sponge assay. Polyether sponges were subcutaneously implanted in C57 black mice on day 0 and injected on alternate days with (a) 10 ng bFGF control (3 mice) (b) 10 ng bovine fibroblast growth factor (bFGF)+5 μg full-length his-tagged recombinant FKBPL (equivalent to 3.2×10^−6 M in vitro) (3 mice) (c) 10 ng bFGF+0.35 μg FKBPL 24mer (molar equivalent of 5 μg full-length recombinant FKBPL) (3 mice) or (d) 0.11 ng FKBPL 24mer (equivalent to 10^−9 M in vitro) (3 mice).
All mice were sacrificed on day 21. Sponges were removed, fixed and paraffin embedded. Five micron sections were stained with haematoxylin and eosin. Vessels were blindly counted by 3 independent assessors using ×40 magnification in 10 fields per section. The average count per sponge/mouse was then plotted for each assessor.

[3] = tested on: MDA231 (breast tumor cell line; CD44 +ve); assay: tumor cell migration, wound closure assay, MDA231; format: cell-based
Description: In these experiments, the effect of recombinant FKBP-L on tumor cell migration was assessed. The in vitro migration assay used in these studies is a modified version of the method described by Ashton et al (1999) see supra. PC3, MDA231, and HT29 tumor cells were plated into individual chambers on a glass slide and grown to 90% confluence overnight. The medium was removed and the monolayers wounded. The monolayer was re-supplemented with fresh medium and the required volume of His-tagged recombinant FKBP-L protein (SEQ ID NO: 1) was added to give the final concentrations shown. The monolayers were incubated for 24 hours and then fixed in 4% PBS buffered paraformaldehyde.
The extent of “wound” closure was blindly assessed microscopically by an independent investigator and quantified using a calibrated eyepiece graticule (1 mm/100 μm graduation) at 20× magnification (Olympus BX 50). The extent of closure in the FKBP-L treated slides was compared to time matched sham-treated controls and the percent inhibition of wound closure compared to time matched controls calculated. […]
The extent of “wound” closure was blindly assessed microscopically by an independent investigator and quantified using a calibrated eyepiece graticule (1 mm/100 μm graduation) at 20× magnification (Olympus BX 50). […]

Molecule | EC50 ([1]; 18 h) [nM] | reduction in vessel number versus bFGF alone ([2]; 10 ng bFGF + 0.35 μg on alternate days) [%] | reduction in vessel number versus bFGF alone ([2]; lowest dose (0.11 ng, equivalent to 10^−9 M in vitro) on alternate days) [%] | effect on tumor cell migration ([3]; MDA-231, 10^−14-10^−7 M, 24 h) | optimum concentration for inhibition of cell to cell contacts or tubules ([1]; 250-1000 ngml^−1, 18 hours) [ngml^−1] | efficacy (inhibition of cell to cell contacts) at optimum concentration ([1]; 750 ngml^−1, 18 hours) [%] | EC50 potency, tube formation ([1]; 18 hours) [ngml^−1] | reduction in vessel number versus bFGF alone ([2]; 10 ng bFGF + 5 μg on alternate days) [%] | vessel counts versus bFGF alone ([2]; 10 ng bFGF+5 μg on alternate days, 14 days, p=0.0008) | effect on tumor cell migration ([3]; MDA231, 24 hours)
H-QIRQQPRDPPTETLELEVSPDPAS-OH [FKBP-L 24mer] | 0.03 | 80 | 70 | can inhibit | – | – | – | – | – | –
B1 | – | – | – | – | 750 | 80 | 314 | 50 | significantly fewer vessels | inhibits tumor cell migration in a dose-dependent manner
